pKd: −log10 of the molar value.
What was measured:
[1] = biological target: fluorescently Ct-labeled six-residue peptide bearing Nt-Asp; assay: fluorescence polarisation
[2] = biological target: fluorescently Ct-labeled six-residue peptide bearing Nt-Glu; assay: fluorescence polarisation

pKd [1]: < 4.00
pKd [2]: < 4.00
Substance: klAte1, the Ate1 arginyl-tRNA-protein transferase (R-transferase) of Kluyveromyces lactis (enzyme)

Source: paper PMC9351520
